Positions count from the first letter of the chain named.

In assay [1] the target is T1, mouse RAGE (mRAGE) fused to EGFP, expressed on CHO cells (mouse, UniProt Q62151 23-402).
T1 chain: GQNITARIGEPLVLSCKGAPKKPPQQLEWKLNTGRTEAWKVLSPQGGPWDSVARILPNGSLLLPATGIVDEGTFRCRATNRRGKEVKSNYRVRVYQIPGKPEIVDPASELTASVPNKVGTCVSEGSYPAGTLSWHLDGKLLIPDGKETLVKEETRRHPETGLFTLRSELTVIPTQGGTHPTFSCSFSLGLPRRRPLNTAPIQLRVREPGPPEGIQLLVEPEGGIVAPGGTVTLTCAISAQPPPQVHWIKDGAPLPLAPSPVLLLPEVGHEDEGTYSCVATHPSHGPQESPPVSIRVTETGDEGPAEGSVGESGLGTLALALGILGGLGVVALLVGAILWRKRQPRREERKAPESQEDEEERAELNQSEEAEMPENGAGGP
Kind of assay: flow cytometry on CHO-mRAGE-EGFP cells; apparent Kd; column head prints TfR, legend says RAGE. (In flow cytometry, cells or beads pass a laser one at a time.)

The target of assay [2] is T2, human RAGE (hRAGE) fused to EGFP, stably expressed on CHO cells (human, UniProt Q15109 23-404). Kind of assay: flow cytometry on CHO-hRAGE-EGFP cells; apparent Kd; column head prints TfR, legend says RAGE.
Assay [3] addresses T1, mouse RAGE (mRAGE) fused to EGFP, …. The assay can be described thus: flow.
The target is the same in assay [4]. Kind of assay: flow cytometry on CHO-mRAGE-EGFP cells; apparent Kd.
The target is the same in assay [5]. Kind of assay: flow.
For assay [6] the target is unchanged. The assay can be described thus: flow cytometry on CHO-mRAGE-EGFP cells; apparent Kd.
Assay [7] deals with T2, human RAGE (hRAGE) fused to EGFP, …. Kind of assay: flow cytometry on CHO-hRAGE-EGFP cells; apparent Kd.

T2 sequence (Q15109 23-404): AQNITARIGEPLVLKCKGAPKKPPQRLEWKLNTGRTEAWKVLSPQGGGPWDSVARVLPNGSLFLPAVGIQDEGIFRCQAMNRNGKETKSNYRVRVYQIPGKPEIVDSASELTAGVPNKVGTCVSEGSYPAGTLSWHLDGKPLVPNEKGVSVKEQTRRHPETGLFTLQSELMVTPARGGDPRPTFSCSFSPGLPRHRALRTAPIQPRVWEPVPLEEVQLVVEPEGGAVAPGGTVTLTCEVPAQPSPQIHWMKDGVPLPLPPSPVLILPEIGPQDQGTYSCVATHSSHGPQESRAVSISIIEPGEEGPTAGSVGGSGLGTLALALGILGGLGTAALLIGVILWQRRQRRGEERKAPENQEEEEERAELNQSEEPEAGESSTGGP

B1: VHH 5-Fc (Fc fusion)
chain: EVQLVESGGGLVQPGGSLRLSCAASGTIFSLNPMGWYRQAPGKQLELVALISDSGTANYADFVRGRFTISRDTTKKTLYLQMNSLEPEDTAVYYCRSTFAAGNFYWGQGTQVTVSS
Take B1: the Kd in assay [1] is 0.153 µM; in assay [2], 0.0032 µM.

B2: VHH 3 (VHH)
VHH: QVQLVQSGGGLVQAGGSLRLSCVASGRTFSNYAMAWFRQAPGEEREFVARISWSGGRTSYADSVKGRFTISRDNAKNTVYLQMISLKPEDTAVYYCATEAGAFGGVYSSTGSYDYWGQGTQVTVSS
In assay [3], B2 registered a Kd of 0.08 µM.

B3: VHH 4-Fc (Fc fusion)
chain: B2 VHH with Q1E, Q6E, S54R, T98S, A100G, S109A
With B3, the Kd in assay [1] stood at 0.0014 µM.

B4: VHH 4-siTTRm (antibody, V domains shown)
VH: B2 VHH with Q1E, Q6E, S54R, T98S, A100G, S109A
For B4, in assay [4], the Kd is 0.011 µM.

B5: VHH 3-Fc (Fc fusion)
chain: B2 VHH
On to B5, for which the Kd in assay [5] was 0.0014 µM.

B6: VHH 2-Fc (Fc fusion)
chain: QVQLVQSGGGLVQAGGSLRLSCAASGSVSSIYAMGWYRQAPGKQREWVTTITGRGITDYAASVKGRFTISRDTAKNAVYLQMNNLKPEDTARYYCKIDRRGYAPYWGQGTQVTVSS
As for B6, the Kd was 0.0096 µM in assay [1] and 0.0036 µM in assay [2].

B7: VHH 2 (VHH)
VHH: B6 chain
Consider B7, for which the Kd in assay [6] worked out at 0.526 µM.

B8: VHH 2-siTTRm (antibody, V domains shown)
VH: B6 chain
On to B8, for which, in assay [4], the Kd was 0.119 µM.

B9: VHH 1-Fc (Fc fusion)
chain: QVQLVQSGGGLVQPGGSLRLSCAVSGSIFSSATMGWYRQAPGKQRELAARISSGGSTNYLDSVKGRFTISRDNAKNTVYLQMNSLKLEDTAVYYCRLQANFGLVDYWGKGTQVTVSS
In the case of B9, the results for the Kd in assay [1] and in assay [2] were 0.0019 µM and 0.154 µM, respectively.

B10: VHH 1 (VHH)
VHH: B9 chain
Turning to B10, the Kd in assay [6] is 0.32 µM; in assay [7], 0.347 µM.

Values taken from US20260274944A1 (published 2026).
